Assay results published in patent US11110182B2, “Multifunctional RNA nanoparticles and methods for treating cancer and therapeutic resistant cancer” (University of Cincinnati, priority 2016, dated 2021).

Key:
recombinant Dicer enzyme = target: T1, recombinant Dicer enzyme (Homo sapiens, UniProt Q9UPY3); experiment: Digestion with recombinant Dicer enzyme, siRNA release; type: biochemical; details: 1 μg pRNA nanoparticles, 37° C., 12 h
T1 construct: purchased Genlantis
Procedure: FIG. 7A) Six HER2-targeting RNA aptamers were selected from previous literatures, and their secondary structures were predicted using Srna-fold software. FIG. 7B) Six p2 strands containing the six different HER2 RNA aptamers were synthesized and annealed with the same p1 strand to generate six different pRNA-HER2apt-MED1 siRNA nanoparticles, respectively, followed by examination using 8% native PAGE gel electrophoresis. FIG. 7C) BT474 cells were treated with above pRNA nanoparticles for 48 h, and then MED1 protein level was determined by western blotting. […] FIG. 7D) 1 μg pRNA nanoparticles were incubated with recombinant Dicer enzyme (Genlantis) at 37° C. for 12 h, the product was separated by 8% native PAGE gel.
Next, the pRNA nanoparticles were digested with recombinant Dicer enzyme (Genlantis) ^34 to confirm the release of siRNAs as indicated by the generation of 21-23 bp small RNAs after digestion (FIG. 7D).

MDA-MB-231 cells = experiment: pRNA nanoparticle cellular uptake assay (confocal, flow cytometry), MDA-MB-231; type: cell-based, human; details: MDA-MB-231 (HER2-negative), AF647-conjugated, 10 μg/mL, confocal microscopy
Excerpt: FIG. 8A) HER2 expression in BT474 and MDA-MB-231 cells determined by western blot analyses. FIG. 8B) The binding of AF-647-labeled pRNA-HER2apt-siMED1 and its mutant nanoparticles to MDA-MB-231 and BT474 cells examined by confocal microscopy. Green represents the immunofluorescent staining of HER2, and blue represents nuclear staining with DAPI. FIG. 8C) The internalization of AF647-labeled pRNA nanoparticles by MDA-MB-231 cells examined by confocal microscopy. Green represents the immunofluorescent staining of β-actin. Scale bar: 10 μm. FIG. 8D) The cellular uptake of AF647-labeled pRNA nanoparticles by MDA-MB-231 cells quantified by flow cytometry. FIG. 8E) HER2 expression in BT474 xenograft tumors was examined by western blot analyses. FIG. 8F) MDA-MB-231 cells were incubated directly with (as indicated by-) or transfected with pRNAs using lipofectamine 2000. At 48 h post treatment, MED1 protein levels were determined by western blots.
Cell culture. […] The hydrodynamic diameter and Tm value of pRNA nanoparticles were determined using dynamic light scattering and TGGE assay, respectively, as previously described.^54 The AFM imaging of the pRNA nanoparticles was performed at the University of Nebraska Medical Center imaging facility as previously reported.^55 Briefly, the pRNA nanoparticles (5 μL) were deposited on APS modified mica ^56 for a total of 2 min of incubation time. […]

MCF-7/TAM cells = experiment: MTT assay, MCF-7/TAM cells; type: cell-based, human; details: 10 μg/mL pRNA and 1 μM tamoxifen, 48 h
Procedure: FIGS. 10A-10D. Evidence that pRNA-HER2apt-siMED1 nanoparticles silenced MED1 expression and sensitized two other HER2+ breast cancer cells to tamoxifen treatment. FIG. 10A) Two HER2-overexpressing breast cancer cell lines MCF7/TAM and FIG. 10B) MCF7/HER2, were treated with 10 μg/mL pRNA-HER2apt-siMED1 nanoparticles or scramble control for 48 h, and then MED1 protein level was determined using western blots. FIG. 10C) MCF7/TAM and FIG. 10D) MCF7/HER2 cells were treated with 10 μg/mL pRNA nanoparticles and/or 1 μM tamoxifen (TAM) as indicated for 48 h, and then cell growth was determined using an MTT assay.
Since MED1 has recently been reported to play key roles in tamoxifen resistance of human breast cancer, the combinational effects of pRNA-HER2apt-siMED1 nanoparticles with tamoxifen on the growth and metastatic potential of BT474 cells was examined. […] The combinational effect of pRNA-HER2apt-siMED1 nanoparticles with tamoxifen treatment on two other HER2-overexpressing breast cancer cells MCF-7/HER2 and MCF-7/TAM were also confirmed (FIGS. 10C-D).

T1 sequence (Q9UPY3 whole entry): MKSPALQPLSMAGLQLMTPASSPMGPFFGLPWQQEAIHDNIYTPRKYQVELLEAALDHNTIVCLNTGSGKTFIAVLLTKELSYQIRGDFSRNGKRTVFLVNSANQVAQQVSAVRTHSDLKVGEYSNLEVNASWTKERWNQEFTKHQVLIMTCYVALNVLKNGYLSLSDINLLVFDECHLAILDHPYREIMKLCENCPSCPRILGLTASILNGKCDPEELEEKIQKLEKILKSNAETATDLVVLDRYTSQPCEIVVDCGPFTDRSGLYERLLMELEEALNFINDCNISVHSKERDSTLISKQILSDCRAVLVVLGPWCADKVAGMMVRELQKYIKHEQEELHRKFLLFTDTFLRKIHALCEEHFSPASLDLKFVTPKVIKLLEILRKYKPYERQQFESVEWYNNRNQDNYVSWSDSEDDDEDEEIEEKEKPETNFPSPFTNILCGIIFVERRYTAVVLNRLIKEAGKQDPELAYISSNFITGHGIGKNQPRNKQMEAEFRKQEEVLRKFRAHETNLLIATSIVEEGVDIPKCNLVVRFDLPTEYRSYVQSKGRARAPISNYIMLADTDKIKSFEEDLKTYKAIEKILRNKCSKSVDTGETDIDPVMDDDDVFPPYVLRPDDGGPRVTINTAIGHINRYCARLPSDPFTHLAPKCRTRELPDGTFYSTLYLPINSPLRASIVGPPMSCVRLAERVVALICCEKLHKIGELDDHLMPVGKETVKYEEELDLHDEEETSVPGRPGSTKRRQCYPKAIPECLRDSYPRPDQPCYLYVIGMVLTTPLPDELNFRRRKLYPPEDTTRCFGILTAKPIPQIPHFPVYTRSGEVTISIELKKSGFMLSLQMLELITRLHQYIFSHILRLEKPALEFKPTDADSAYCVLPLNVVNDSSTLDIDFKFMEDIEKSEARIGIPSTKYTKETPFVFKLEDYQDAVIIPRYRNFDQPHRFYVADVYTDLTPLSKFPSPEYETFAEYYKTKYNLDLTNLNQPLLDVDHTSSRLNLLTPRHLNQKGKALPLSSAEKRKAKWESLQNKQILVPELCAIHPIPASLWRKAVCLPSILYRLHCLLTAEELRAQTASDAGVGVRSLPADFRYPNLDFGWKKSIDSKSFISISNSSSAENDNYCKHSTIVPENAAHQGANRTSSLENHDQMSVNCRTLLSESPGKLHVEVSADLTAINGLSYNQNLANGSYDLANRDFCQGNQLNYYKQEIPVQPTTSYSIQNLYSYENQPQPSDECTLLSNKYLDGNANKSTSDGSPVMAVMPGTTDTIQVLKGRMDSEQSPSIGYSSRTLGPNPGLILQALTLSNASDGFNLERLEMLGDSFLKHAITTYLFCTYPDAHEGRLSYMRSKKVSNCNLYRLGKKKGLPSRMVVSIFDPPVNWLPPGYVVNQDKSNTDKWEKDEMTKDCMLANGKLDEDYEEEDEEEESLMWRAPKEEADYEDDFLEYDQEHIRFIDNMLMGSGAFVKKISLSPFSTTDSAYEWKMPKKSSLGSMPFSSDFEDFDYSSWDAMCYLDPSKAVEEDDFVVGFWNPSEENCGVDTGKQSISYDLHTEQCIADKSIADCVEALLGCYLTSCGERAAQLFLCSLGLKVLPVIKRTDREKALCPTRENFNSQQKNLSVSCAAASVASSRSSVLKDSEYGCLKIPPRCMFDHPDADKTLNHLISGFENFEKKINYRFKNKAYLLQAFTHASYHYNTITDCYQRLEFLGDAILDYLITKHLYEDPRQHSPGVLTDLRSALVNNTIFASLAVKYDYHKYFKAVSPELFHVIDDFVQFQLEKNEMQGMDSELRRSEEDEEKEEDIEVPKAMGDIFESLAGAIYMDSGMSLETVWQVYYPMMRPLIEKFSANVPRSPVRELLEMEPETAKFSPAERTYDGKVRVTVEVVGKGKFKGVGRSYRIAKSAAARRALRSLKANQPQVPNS

B1: pRNA-HER2apt-siMED1: 3-WJ pRNA nanoparticle bearing a HER2-targeting RNA aptamer and two different MED1 siRNAs; strands p1 SEQ ID NO: 3, p2 SEQ ID NO: 4 (nucleic acid)
chain 1: GGACAGUGAAAGUGAGUCAAAGGAUCAAUCAUGGCCAAAGAUGUUACUUUGAGAGCCUU
chain 2: GGCUCUCAAAGUAACAUCUAAGGCCAUGUGUAUGUGGGGGGAGGACGAUGCGGUCUGCUGUGCUUGAUAUGCCCCAGACGACUCGCCCCCCACAUACUUUGUUGAUCCAAUGACUCACUUUCACUGUCCUU
modifications: 2'-F modification; third strand may lack entry; pRNA-HER2apt-siMED1, p1; pRNA-HER2apt-siMED1, p2
Q: With B1 as the molecule, how does the “small RNAs generated after Dicer digestion (release of siRNAs)” value (recombinant Dicer enzyme) read?
A: The value was 21-23 bp.

Q: What about the “binding and internalization into cells” value (MDA-MB-231 cells) of the same molecule?
A: The value was “not”.

Q: What about the “combinational effect with tamoxifen on cell growth” value (MCF-7/TAM cells) of the same molecule?
A: Its value is “confirmed”.
